From article PMC7396694, “Two MarR-Type Repressors Balance Precursor Uptake and Glycine Betaine Synthesis in Bacillus subtilis to Provide Cytoprotection Against Sustained Osmotic Stress” (Frontiers in Microbiology, 2020)

T1: GbsR-Strep-tag II (Bacillus subtilis JH642) (UniProt P71015)
T1 sequence: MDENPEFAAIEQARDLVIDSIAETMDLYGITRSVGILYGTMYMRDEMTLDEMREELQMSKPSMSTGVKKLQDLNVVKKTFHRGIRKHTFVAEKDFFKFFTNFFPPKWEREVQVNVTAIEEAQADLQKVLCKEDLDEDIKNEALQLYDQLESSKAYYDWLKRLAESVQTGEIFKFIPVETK

B1: GbsR-Strep-tag II recombinant protein (natural protein, Bacillus subtilis, UniProt P71015 1-180, looked up)
chain: T1 sequence
notes: GbsR, choline-responsive MarR-type repressor of Bacillus subtilis; coding region of gbsR amplified from chromosomal DNA of B. subtilis JH642; also called GbsR repressor; not shown: Strep-tag II, C-terminal, kept

Experiments:
[1] = biological target: T1, GbsR-Strep-tag II (Bacillus subtilis JH642); assay: EMSA; details: 10 mM Tris pH 8, 150 ug/ml herring sperm DNA, 7.5% glycerol, 1 pmol DNA in 20 ul, 20 min at 25 C; native 8% polyacrylamide gel
[2] = biological target: the molecule itself; assay: SEC; HiLoad 16/600 Superdex 200 pg; 2 ml protein solution (1 mg/ml) loaded immediately after affinity purification; 100 mM potassium phosphate (pH 8), 300 mM NaCl; column standardised with thyroglobulin, albumin, ovalbumin, cytochrome C

| Molecule | binding [1] | stoichiometry N [2] |
| --- | --- | --- |
| GGGACTTTGACAGTTTAAAAACCATATGTTAGATTAAGGTTGTTAAAAACATTAAATTTTTATTTAACAAACTTTATTTACGTCAAGGAGGCTTAT (double strand) [gbsA fragment with GbsR operator] | binds | – |
| B1 | – | 2 |
